Assay results taken from the supplement of paper PMC11908140.

B1: library; numbered along this chain (parent)
chain: MRKPRAAVGSGHRKQAASQEGRQKHAKNNSQAKPSACDGLARQPEEVVLQASVSSYHLFRDVAEVTAFRGSLLSWYDQEKRDLPWRRRAEDEMDLDRRAYAVWVSEVMLQQTQVATVINYYTGWMQKWPTLQDLASASLEEVNQLWAGLGYYSRGRRLQEGARKVVEELGGHMPRTAETLQQLLPGVGRYTAGAIASIAFGQATGVVDGNVARVLCRVRAIGADPSSTLVSQQLWGLAQQLVDPARPGDFNQAAMELGATVCTPQRPLCSQCPVESLCRARQRVEQEQLLASGSLSGSPDVEECAPNTGQCHLCLPPSEPWDQTLGVVNFPRKASRKPPREESSATCVLEQPGALGAQILLVQRPNSGLLAGLWEFPSVTWEPSEQLQRKALLQELQRWAGPLPATHLRHLGEVVHTFSHIKLTYQVYGLALEGQTPVTTVPPGARWLTQEEFHTAAVSTAMKKVFRVYQGQQPGTCMGSKRSQVSSPCSRKKPRMGQQVLDNFFRSHISTDAHSLNSAAQ

Variants of: B1
Assay: 8OG:A repair function score (normalized; synonymous = 0, nonsense = -1) (normalized log-likelihood score); higher = more repair activity (WT-like)
Conditions: with 8OG:A DNA repair reporter (GFP) in HEK-293 MUTYH KO cells
How it was run: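 GFP+ (repair) and GFP− bins of viable mCherry+ cells were collected at 72 h from MUTYH knockout HEK-293 cells bearing lentiviral MUTYH cDNA NNN codon-scan libraries in 10 pg/ml doxycycline, co-transfected with an 8OG:A GFP repair reporter and mCherry. Tile amplicons were sequenced, and per-tile Rosace fitness scores were normalized to a repair function score anchored on synonymous and nonsense distributions. Synonymous medians were set to 0 and nonsense to -1, with variants under 300 counts per million at the start removed.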
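Also: cells sorted at 72 h after reporter transfection.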

Row | Variant | 8OG:A repair function score
1 | A445E | -0.567
2 | A445Q | -0.575
3 | S343N | -0.0331
4 | C477Y | -0.016
5 | G356R | -0.153
6 | G170C | -0.00944
7 | G170Q | 0.0993
8 | P383S | -0.0364
9 | A513C | -0.00572
10 | T455N | 0.0652
11 | E178D | -0.000297
12 | L315W | -0.187
13 | G326H | -0.203
14 | V107G | -0.0408
15 | F453S | -0.421
16 | R281D | -0.447
17 | G372F | -0.294
18 | M173A | -0.537
19 | G429K | -0.404
20 | L290K | 0.0241
21 | S298K | -0.0342
22 | T417E | 0.0158
23 | R409W | 0.0733
24 | V242Q | -0.763

Row | Variant | 8OG:A repair function score
25 | V242H | -0.806
26 | R86M | -1.93
27 | R279P | -1.12
28 | V206E | -1.01
29 | N143Y | 0.0152
30 | E303A | -0.0517
31 | T308E | -0.0446
32 | R491S | 0.00574
33 | C278R | -1.27
34 | C278M | -1.52
35 | G412T | -0.494
36 | D243Y | -0.667
37 | L180K | -0.838
38 | A259P | -1.09
39 | A259G | -0.148
40 | R97Q | 0.00692
41 | P264C | -0.102
42 | T130Q | -0.123
43 | T130G | -0.0108
44 | T130R | -0.049
45 | L360N | -1.27
46 | E375D | -0.434
47 | M255C | -0.788
48 | M255K | -1.01

Row | Variant | 8OG:A repair function score
49 | T439S | -0.0274
50 | F250H | -0.485
51 | R364H | -0.405
52 | K164Q | -0.101
53 | Q397G | -0.363
54 | Q144G | -0.106
55 | Q144K | -7.85e-05
56 | S105Q | -0.69
57 | P442V | -0.0512
58 | L448R | -0.341
59 | L448M | 0.207
60 | I198L | -0.391
61 | A457V | -0.205
62 | L158E | -1.05
63 | S335N | 0.0783
64 | K492C | 0.0201
65 | A147Q | 0.00492
66 | P338C | -0.0613
67 | R157M | -0.0764
68 | K3C | -0.0701
69 | L396S | -0.52
70 | V53G | -0.0541
71 | L392N | -1.52
72 | S419W | -0.75

Row | Variant | 8OG:A repair function score
73 | G297M | -0.00568
74 | H416L | -0.319
75 | L325N | -0.136
76 | V414F | -0.187
77 | S367P | -0.0154
78 | Q181T | -0.0945
79 | M108L | -0.662
80 | S197F | -0.956
81 | V165S | -0.732
82 | G222T | -0.547
83 | T511D | -0.0938
84 | G236H | -0.00754
85 | P317Q | -0.121
86 | T191E | -0.898
87 | A519D | 0.0164
88 | A519Q | 0.023
89 | E452L | -0.252
90 | E452S | -0.0485
91 | R398C | -0.0446
92 | P320Q | -0.104
93 | Y56G | -0.0482
94 | L349I | 0.0298
95 | D133P | -0.372
96 | D133G | 0.0336

Row | Variant | 8OG:A repair function score
97 | L40Y | 0.179
98 | H508T | 0.0103
99 | R60L | 0.00645
100 | W128P | -1.23
101 | I421M | -0.139
102 | E167I | -0.0169
103 | R246H | -0.449
104 | V485I | 0.0128
105 | V142M | -0.673
106 | Q473A | -0.00985
107 | A334Y | 0.0534
108 | A41S | -0.048
109 | C489H | 0.0276
110 | N307D | 0.0758
111 | Y100I | -1.67
112 | Y100M | -1.24
113 | D300K | -0.325
114 | D300R | -0.291
115 | S296K | -0.0357
116 | A196T | -0.342
117 | K422C | -0.221
118 | E319D | -0.0309
119 | S136I | -0.0848
120 | V415G | -0.172

Row | Variant | 8OG:A repair function score
121 | L241A | -0.581
122 | L241S | -0.626
123 | S294R | -0.00624
124 | Q265K | -0.0319
125 | R482D | -0.000963
126 | L169H | -0.0549
127 | W124Q | -0.557
128 | S292Q | -0.0703
129 | V427K | -1.06
130 | S510C | -0.0307
131 | S510R | 0.00127
132 | P174Q | -0.827
133 | P174F | -0.961
134 | K493H | 0.0281
135 | K493R | -0.00709
136 | K493L | -0.025
137 | W103Q | -0.686
138 | L95E | -0.00548
139 | L95K | -0.0064
140 | R446G | -0.67
141 | R446Q | -0.119
142 | H454A | 0.182
143 | F466G | -0.584
144 | F466T | -0.725

Row | Variant | 8OG:A repair function score
145 | Q310K | -0.0227
146 | R81H | -0.3
147 | Q288F | -0.016
148 | Y121I | -0.562
149 | Y121W | -0.427
150 | R266V | -0.119
151 | A357S | 0.0171
152 | T112E | -0.925
153 | Q182Y | 0.00409
154 | E92M | -0.0276
155 | P402D | 0.516
156 | C311D | -0.559
157 | S486W | 0.0129
158 | T228W | -0.106
159 | D96R | -0.506
160 | G150L | -1.18
161 | G150Q | -1.58
162 | P437A | -0.00344
163 | P437F | -0.282
164 | Q271G | -0.0498
165 | E342G | -0.00875
166 | Q499K | -0.00715
167 | H172K | 0.118
